Data as given in patent publication US20170190753A1 (LABORATOIRE FRANCAIS DU FRACTIONNEMENT ET DES …, published 2017).

Target: C3 convertase complex (UniProt P01024 23-1663; P00751 260-764)
Experiment: cell-based or functional assay
Wherever C3 convertase activity % of the control is given: test concentration or dose not given here.

C3 convertase complex, sequence (P01024 23-1663, chain 1 of 2): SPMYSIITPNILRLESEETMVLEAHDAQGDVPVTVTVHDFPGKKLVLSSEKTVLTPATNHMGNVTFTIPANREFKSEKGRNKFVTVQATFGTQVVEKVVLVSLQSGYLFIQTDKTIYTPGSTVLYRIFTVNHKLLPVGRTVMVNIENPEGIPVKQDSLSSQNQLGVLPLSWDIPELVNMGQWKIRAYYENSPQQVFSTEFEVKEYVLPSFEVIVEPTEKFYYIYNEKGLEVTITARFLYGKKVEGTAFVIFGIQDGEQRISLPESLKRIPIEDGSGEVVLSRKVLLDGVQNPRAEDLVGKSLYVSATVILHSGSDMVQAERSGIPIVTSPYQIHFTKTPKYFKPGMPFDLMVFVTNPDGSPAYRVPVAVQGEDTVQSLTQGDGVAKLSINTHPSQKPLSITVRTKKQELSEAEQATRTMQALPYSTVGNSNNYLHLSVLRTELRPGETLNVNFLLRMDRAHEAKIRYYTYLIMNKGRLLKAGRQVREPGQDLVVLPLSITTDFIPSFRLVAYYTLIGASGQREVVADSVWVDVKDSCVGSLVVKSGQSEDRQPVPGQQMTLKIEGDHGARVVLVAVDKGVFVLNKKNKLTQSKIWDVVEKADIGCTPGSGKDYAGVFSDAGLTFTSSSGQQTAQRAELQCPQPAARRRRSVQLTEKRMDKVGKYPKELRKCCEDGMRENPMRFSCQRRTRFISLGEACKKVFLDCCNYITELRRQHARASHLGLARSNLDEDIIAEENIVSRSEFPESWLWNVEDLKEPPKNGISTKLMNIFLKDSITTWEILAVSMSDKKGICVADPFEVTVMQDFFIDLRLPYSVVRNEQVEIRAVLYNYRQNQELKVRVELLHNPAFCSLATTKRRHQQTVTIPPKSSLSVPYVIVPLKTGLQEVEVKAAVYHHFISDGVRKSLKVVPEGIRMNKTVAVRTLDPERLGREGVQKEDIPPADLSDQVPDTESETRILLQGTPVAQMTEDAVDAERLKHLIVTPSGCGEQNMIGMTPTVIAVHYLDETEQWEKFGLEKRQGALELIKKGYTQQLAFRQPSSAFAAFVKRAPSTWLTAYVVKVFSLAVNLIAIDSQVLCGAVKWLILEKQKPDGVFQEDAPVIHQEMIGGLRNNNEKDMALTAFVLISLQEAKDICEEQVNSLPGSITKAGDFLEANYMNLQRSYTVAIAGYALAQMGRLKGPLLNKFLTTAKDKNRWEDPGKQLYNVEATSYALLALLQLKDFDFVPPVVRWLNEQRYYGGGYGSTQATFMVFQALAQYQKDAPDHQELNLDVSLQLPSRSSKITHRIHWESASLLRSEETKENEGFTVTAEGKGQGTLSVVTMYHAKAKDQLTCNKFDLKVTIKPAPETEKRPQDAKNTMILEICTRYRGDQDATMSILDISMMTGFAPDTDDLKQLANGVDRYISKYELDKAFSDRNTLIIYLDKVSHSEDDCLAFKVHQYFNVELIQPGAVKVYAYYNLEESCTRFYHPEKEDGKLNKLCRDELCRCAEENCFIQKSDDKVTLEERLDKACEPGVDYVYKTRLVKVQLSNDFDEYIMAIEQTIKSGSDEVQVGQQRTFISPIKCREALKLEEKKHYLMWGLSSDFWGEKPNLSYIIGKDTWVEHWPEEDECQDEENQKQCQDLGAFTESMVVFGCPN
C3 convertase complex, sequence (P00751 260-764, chain 2 of 2): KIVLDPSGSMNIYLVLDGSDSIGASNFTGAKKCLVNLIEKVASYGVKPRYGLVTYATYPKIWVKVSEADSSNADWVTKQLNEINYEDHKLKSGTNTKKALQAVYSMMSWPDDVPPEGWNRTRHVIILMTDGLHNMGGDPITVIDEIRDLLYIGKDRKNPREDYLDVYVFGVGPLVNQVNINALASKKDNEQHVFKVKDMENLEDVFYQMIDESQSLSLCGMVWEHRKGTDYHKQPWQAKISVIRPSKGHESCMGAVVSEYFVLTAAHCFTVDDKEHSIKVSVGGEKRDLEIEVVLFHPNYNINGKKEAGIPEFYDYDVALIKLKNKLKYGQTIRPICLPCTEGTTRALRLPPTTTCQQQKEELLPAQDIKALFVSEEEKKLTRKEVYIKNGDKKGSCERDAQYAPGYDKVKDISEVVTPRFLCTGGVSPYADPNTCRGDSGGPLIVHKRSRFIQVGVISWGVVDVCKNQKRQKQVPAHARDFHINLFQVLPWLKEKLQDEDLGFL

Row | C3 convertase activity % of the control | C3 convertase activity IC50 [µg/mL] | Binder
1 | 58 % of the control | 0.612 | pCEP4-1NT10-11CT20 (other) EDCNELPPRRNTEILTGSWSDQTYPEGTQAIYKCRPGYRSLGNVIMVCRKGEWVALNPLRKCQKRPCGHPGDTPFGTFTLTGGNVFEYGVKAVYTCNEGYQLLGEINYRECDTDGWTNDIPICEVVKCLPVTAPENGKIVSSAMEPDREYHFGQAVRFVCNSGYKIEGDEEMHCSDDGFWSKEKPKCVEISCKSPDVINGSPISQKIIYKENERFQYKCNMGYEYSERGDAVCTESGWRPLPSCEEKSCDNPYIPNGDYSPLRIKHRTGDEITYQCRNGFYPATRGNTAKCTSTGWIPAPRCTLKPCDYPDIKHGGLYHENMRRPYFPVAVGKYYSYYCDEHFETPSGSYWDHIHCTQDGWSPAVPCLRKCYFPYLENGYNQNHGRKFVQGKSIDVACHPGYALPKAQTTVTCMENGWSPTPRCIRVKTCSKSSIDIENGFISESQYTYALKEKAKYQCKLGYVTADGETSGSITCGKDGWSAQPTCIKSCDIPVFMNARTKNDFTWFKLNDTLDYECHDGYESNTGSTTGSIVCGYNGWSDLPICYERECELPKIDVHLVPDRKKDQYKVGEVLKFSCKPGFTIVGPNSVQCYHFGLSPDLPICKEQVQSGASGCGPPPELLNGNVKEKTKEEYGHSEVVEYYCNPRFLMKGPNKIQCVDGEWTTLPVCIVEESTCGDIPELEHGWAQLSSPPYYYGDSVEFNCSESFTMIGHRSITCIHGVWTQLPQCVAIDKLKKCKSSNLIILEEHLKNKKEFDHNSNIRYRCRGKEGWIHTVCINGRWDPEVNCSMAQIQLCPPPPQIPNSHNMTTTLNYRDGEKVSVLCQENYLIQEGEEITCKDGRWQSIPLCVEKIPCSQPPQIEHGTINSSRSSQESYAHGTKLSYTCEGGFRISEENETTCYMGKWSSPPQCEGLPCKSPPEISHGVVAHMSDSYQYGEEVTYKCFEGFGIDGPAIAKCLGEKWSHPPSCIKTDCLSLPSFENAIPMGEKKDVYKAGEQVTYTCATYYKMDGASNVTCINSRWTGRPTCRDTSCVNPPTVQNAYIVSRQMSKYPSGERVRYQCRSPYEMFGDEEVMCLNGNWTEPPQCKDSTGKCGPPPPIDNGDITSFPLSVYAPASSVEYQCQNLYQLEGNKRITCRNGQWSEPPKCLHPCVISREIMENYNIALRWTAKQKLYSRTGESVEFVCKRGYRLSSRSHTLRTTCWDGKLEYPTCAKRGGSGHHHHHH
2 | 59 % of the control | 0.602 | pCEP4-1NT7-10CT20 (other) EDCNELPPRRNTEILTGSWSDQTYPEGTQAIYKCRPGYRSLGNVIMVCRKGEWVALNPLRKCQKRPCGHPGDTPFGTFTLTGGNVFEYGVKAVYTCNEGYQLLGEINYRECDTDGWTNDIPICEVVKCLPVTAPENGKIVSSAMEPDREYHFGQAVRFVCNSGYKIEGDEEMHCSDDGFWSKEKPKCVEISCKSPDVINGSPISQKIIYKENERFQYKCNMGYEYSERGDAVCTESGWRPLPSCEEKSCDNPYIPNGDYSPLRIKHRTGDEITYQCRNGFYPATRGNTAKCTSTGWIPAPRCTLKPCDYPDIKHGGLYHENMRRPYFPVAVGKYYSYYCDEHFETPSGSYWDHIHCTQDGWSPAVPCLRKCYFPYLENGYNQNYGRKFVQGKSIDVACHPGYALPKAQTTVTCMENGWSPTPRCIRVKTGASGCELPKIDVHLVPDRKKDQYKVGEVLKFSCKPGFTIVGPNSVQCYHFGLSPDLPICKEQVQSCGPPPELLNGNVKEKTKEEYGHSEVVEYYCNPRFLMKGPNKIQCVDGEWTTLPVCIVEESTCGDIPELEHGWAQLSSPPYYYGDSVEFNCSESFTMIGHRSITCIHGVWTQLPQCVAIDKLKKCKSSNLIILEEHLKNKKEFDHNSNIRYRCRGKEGWIHTVCINGRWDPEVNCSMAQIQLCPPPPQIPNSHNMTTTLNYRDGEKVSVLCQENYLIQEGEEITCKDGRWQSIPLCVEKIPCSQPPQIEHGTINSSRSSQESYAHGTKLSYTCEGGFRISEENETTCYMGKWSSPPQCEGLPCKSPPEISHGVVAHMSDSYQYGEEVTYKCFEGFGIDGPAIAKCLGEKWSHPPSCIKTDCLSLPSFENAIPMGEKKDVYKAGEQVTYTCATYYKMDGASNVTCINSRWTGRPTCRDTSCVNPPTVQNAYIVSRQMSKYPSGERVRYQCRSPYEMFGDEEVMCLNGNWTEPPQCKDSTGKCGPPPPIDNGDITSFPLSVYAPASSVEYQCQNLYQLEGNKRITCRNGQWSEPPKCLHPCVISREIMENYNIALRWTAKQKLYSRTGESVEFVCKRGYRLSSRSHTLRTTCWDGKLEYPTCAKRGGSGHHHHHH
